The source of these data is patent US20220380446A1 (ABL BIO, published 2022).

Test [1] has as its target T1, human α-synuclein pre-formed fibrils (Human Alpha Synuclein Pre-formed Fibrils Type II, StressMarq SPR-317) (human, UniProt P37840 1-140). Briefly: SPR Biacore T200, antibody captured on Protein A chip, α-syn PFF analyte, 1:1 model. As to the method:
(§1) The equipment used was Biacore® (GE Healthcare, Model T200). Protein A (GE Healthcare, Cat: 29-1275-56) was used as a chip, 10 mM glycine-HCl pH 1.5 (GE Healthcare, Cat: BR-1003-54) was used as a regeneration buffer, and HBS-EP was used as a running buffer and an analyte dilution and sample dilution buffer. […] A capture phase was carried out at a contact time of 60 seconds and a flow rate of 30 μL/min was used for a stabilization period of 60 seconds, with the target resonance units (RU) of fibril set to 10 (theoretical). In an association phase, the association time was set to 60 seconds and a flow rate was set to 60 μL/min. In a dissociation phase, the dissociation time was set to 180 seconds, and a flow rate was set to 60 μL/min. In a regeneration phase, the flow rate was set to 30 μL/min, and the regeneration time was set to 60 seconds. A 1:1 binding model was used for fitting, and the Biacore® T200 Evaluation software (GE Healthcare) was used for the evaluation.

The target of test [2] is T1, human α-synuclein pre-formed fibrils …. Briefly: sandwich ELISA, antibody coated, α-syn PFF added, 7B7-biotin detection. As to the method:
(§2) Specifically, the antibodies were diluted with PBS by six-fold serial dilution from 400 nM to 0.009 nM. The diluted antibodies were added to a 96-well plate at 100 μL/well for coating. The plate was sealed and incubated at 4° C. for 16 hours. After washing with phosphate-buffered saline with Tween® (PBS-T; 0.05% Tween® 20) five times, the plate was blocked with 5% BSA in PBS 200 μL/well at 37° C. for 2 hours. After washing with PBS-T five times, α-syn PFF (2 μg/mL, 100 μL/well in 2% BSA in PBS) was added to the plate and incubated at 37° C. for 2 hours. After washing with PBS-T five times, 7B7-biotin antibody (anti-α-syn antibody; 1 μg/mL/100 μL/well, in 2% BSA in PBS) was added and incubated at 37° C. for 2 hours. After washing with PBS-T five times, the plate was incubated with horseradish peroxidase (HRP)-bound streptavidin in PBS with 2% BSA (1:5000, 1 mg/mL stock, 20 ng/well, 100 μL/well) at 37° C. for 1 hour. After washing with PBS-T five times, 3,3′,5,5′-tetramethylbenzidine (TMB) (100 μL/well) was added and incubated at room temperature for 5 minutes. The reaction was stopped by the addition of 0.5 N H₂SO₄ (50 μL/well). Optical absorbance at 450 nm was measured by using a plate reader, with absorbance at 650 nm subtracted from the reading.

The target is the same in test [3]. Described as above. How it is done:
as §2
This is another data set of the same source.

Test [4] has the same target. The test is described as above. How it is done:
as §2
This is another data set of the same source.

The target is the same in test [5]. Described as above. How it is done:
as §2
The source holds these as a separate data set.

The target is the same in test [6]. Briefly: SPR Biacore T200, antibody captured on Protein A chip, α-syn PFF analyte, 1:1 model. As to the method:
as §1
The source holds these as a separate data set.

Test [7] shares this target. As to the kind of experiment: cell-based or functional assay.
Test [8] has the same target. As to the kind of experiment: sandwich ELISA, antibody coated, α-syn PFF added, 7B7-biotin detection. As to the method: as §2
This is another data set of the same source.

Test [9] has the same target. As to the kind of experiment: SPR Biacore T200, antibody captured on Protein A chip, α-syn PFF analyte, 1:1 model. As to the method: as §1
This is another data set of the same source.

For test [10], the target named is human α-synuclein oligomers (Dopamine HCL Stabilized Human Recombinant Alpha Synuclein Oligomers, StressMarq … (human, UniProt P37840 1-140)). As to the kind of experiment: sandwich ELISA, antibody coated, oligomeric α-syn added, 7B7-biotin detection. How it is done:
Human α-syn oligomers from StressMarq (Dopamine HCL Stabilized Human Recombinant Alpha Synuclein Oligomers, SPR-466) was used as the oligomeric α-syn in the assay.
In this sandwich ELISA, test antibodies were diluted with PBS by five-fold serial dilution from 80 nM to 0.005 nM. The serially diluted antibodies were added to a 96-well plate at 100 μL/well for coating. The plate was sealed and incubated at 4° C. for 16 hours. After washing with PBS-T five times, the plate was blocked with 5% BSA in PBS 200 μL/well at 37° C. for 2 hours. After washing with PBS-T five times, oligomeric α-syn (2 μg/mL, 100 μL/well in 2% BSA in PBS) was added and incubated at 37° C. for 2 hours. After washing with PBS-T five times, 7B7-biotin antibody (1 μg/mL, 100 μL/well, in 2% BSA in PBS) were added and incubated at 37° C. for 2 hours. After washing with PBS-T five times, the plate was incubated with Streptavidin-HRP in 2% BSA in PBS (1:5000, 1 mg/mL stock, 20 ng/well, 100 μL/well) at 37° C. for 1 hour. After washing with PBS-T five times, TMB (100 μL/well) was added and incubated at RT for 5 minutes. The reaction was stopped by the addition of 0.5 N H₂SO₄ (50 μL/well).

Where a chain is given by its changes, count along the chain named. Read-outs that look alike come from different tables or passages of the source.

B1: chimeric 1E4 antibody (antibody, V domains shown)
VH: QVQLQQSGAELVRPGTSVKVSCKASGYAFTNYLIEWVKQRPGQGLEWIGVINPGSGGTNYNEKFKGKATLTADKSSSTAYMQLSSLTSDDSAVYFCASGNYDTYWGQGTLVTVSA
VL: DVVMTQTPLSLPVSLGDQASISCRSSQSLVHSNGNTYLHWYLQKPGQSPKLLIYKVSNRFSGVPDRFSGSGSGTDFTLKISRVEAEDLGVYFCSQSTHVPRTFGGGTKLEIK
notes: VH and VL of mouse 1E4 with human IgG1 and kappa constant regions; also called ch1E4; Ch1E4
For B1, the Kd in test [1] and in test [6] was 0.0519 nM each time. The koff in test [1] and in test [6] was 0.00054 s⁻¹ each time. For the same molecule, the kon in [1] and in test [6] was 1.04e+07 M⁻¹ s⁻¹ each time. In addition, the EC50 in test [2] worked out at 1.61 nM; in [3] it was 0.554 nM; in test [4], 0.209 nM; in [5], 0.484 nM; in test [8], 0.876 nM. Moreover, the “phagocytosis of α-syn PFF by BV-2 cells (gMFI, FACS)” value in test [7] amounted to 2 fold against ch9E4.

B2: hu1E4(V1_VL1) (antibody, human IgG1, V domains shown)
VH: QVQLVQSGAEVKKPGASVKVSCKASGYTFTNYLIEWVRQAPGQGLEWMGVINPGSGGTNYNEKFKGRVTMTRDTSISTAYMELSRLRSDDTAVYYCASGNYDTYWGQGTLVTVSS
VL: B1 VL with V2I, P12S, S14T, L15P, D17Q, Q18P, K50Q, L88V, F92Y, G105Q
notes: Monospecific; fused to human IgG1 and kappa constant regions; also called humanized 1E4(V1_VL1); hu1E4(Ver.1_VL1)
In test [1], B2 had a dissociation constant Kd of 0.0276 nM, a koff of 0.000439 s⁻¹ and a kon of 1.59e+07 M⁻¹ s⁻¹. In test [9], this molecule showed a Kd of 0.0302 nM, a koff of 0.000415 s⁻¹ and a kon of 1.38e+07 M⁻¹ s⁻¹. In addition, a half-maximal effect in test [2] (EC50) was put at 1.1 nM. Also, in [10], the EC50 amounted to 3.46 nM and the Saturation point came to 3.16. Besides, the EC50 in [8] came to 0.619 nM.

B3: hu1E4(V8_VL4) (antibody, human IgG1, V domains shown)
VH: B2 VH with R72A, T74K
VL: B1 VL with T7S, S14T, D17Q, Q18P, L42Q, K44R, K50R, L88V, F92Y, L109V
notes: Monospecific; human IgG1 and kappa constant regions
Turning to B3, in test [1], the Kd is 0.051 nM, the koff is 0.000854 s⁻¹ and the kon was 1.68e+07 M⁻¹ s⁻¹. In test [4], this molecule had a half-maximal effective concentration (EC50) of 0.139 nM.

B4: hu1E4(V9_VL4) (antibody, human IgG1, V domains shown)
VH: B2 VH with M48I, V68A, M70L, R72A, T74K
VL: B1 VL with T7S, S14T, D17Q, Q18P, L42Q, K44R, K50R, L88V, F92Y, L109V
notes: as for B3
In [1], B4 displayed a Kd of 0.096 nM, a koff of 0.00137 s⁻¹ and a kon of 1.42e+07 M⁻¹ s⁻¹. This molecule also yielded an EC50 in [4] of 0.114 nM.
